Values of other authors in PMC5057102.
pKd: −log10 of the molar value.

Biological target: Amyloid beta oligomers (1-40/1-42, form not specified) (UniProt P05067)
Test: not stated (cited)
Conditions: 5'-HS (thiol); 0.1 M phosphate buffer (Na2HPO4/NaH2PO4) pH 7.4; incubations at 37 C (Abeta 60 min, aptamer-Au-Th 3 h); 1% BSA block

Amyloid beta oligomers (1-40/1-42, form not specified), sequence (P05067 672-711): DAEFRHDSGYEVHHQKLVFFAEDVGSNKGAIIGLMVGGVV

GCCTGTGTTGGGGCGGGTGCG [Abeta oligomer aptamer (thiolated, on AuNP with thionine)]
pKd: 7.60
